In publication PMC7280789, “Isotype Switching Converts Anti-CD40 Antagonism to Agonism to Elicit Potent Antitumor Activity” (Cancer Cell, 2020):

Key:
[1] = biological target: T1, full-length hCD40 expressed on CHO-k1 cells (Homo sapiens, UniProt P25942); test: flow cytometry on cells; CHO-k1 cells expressing full-length hCD40 or truncated variants CRD2-4 or CRD3-4 incubated with 10 μg/mL anti-CD40 mAb; bound mAb detected by anti-human Fc-PE; details: one partner purified
T1 construct: CD40, human; results call it the full-length CD40 molecule; methods: wild-type full-length extracellular (EC) domain (CRD1-4) cloned into pCIpuro that contains the CD40 transmembrane domain for membrane anchoring; also called full-length CD40 molecule; CRD1-4; source: CHO-k1, stably transfected (pCIpuro), on cells

[2] = biological target: T2, hCD40 truncated variant CRD2-4 expressed on CHO-k1 cells (Homo sapiens, UniProt P25942, point mutant); test: as above; details: one partner purified
T2 construct: CD40, human, truncated variant CRD2-4 (lacks CRD1), with the CD40 transmembrane domain of the vector; source: CHO-k1, stably transfected (pCIpuro), on cells

[3] = biological target: T3, hCD40 truncated variant CRD3-4 expressed on CHO-k1 cells (Homo sapiens, UniProt P25942, point mutant); test: as above; details: one partner purified
T3 construct: CD40, human, truncated variant CRD3-4 (lacks CRD1 and CRD2), with the CD40 transmembrane domain of the vector; source: CHO-k1, stably transfected (pCIpuro), on cells

[4] = biological target: T4, His-tagged recombinant soluble full-length extracellular domain (EC) of hCD40 (Homo sapiens, UniProt P25942); test: far-Western, overlay or dot blot; western blot: His-tagged recombinant CD40 proteins run on 18% polyacrylamide gels, transferred to nitrocellulose, incubated with the anti-CD40 mAb at 4°C overnight, detected with goat anti-human IgG-HRP; details: both partners purified
T4 construct: CD40, human, wild-type full-length extracellular (EC) domain (CRD1-4); Used in the western blot and, as 'hCD40 EC domain', in the SEC/SEC-SAXS complex with 341G2 F(ab); also called hCD40 EC domain; CD40EC; source: FreeStyle 293F, transfected (pcDNA3.1), purified from supernatant (Ni-NTA)

[5] = biological target: T4, His-tagged recombinant soluble …; test: SEC; 341G2 F(ab) and hCD40 EC domain mixed at a 1:1 molar ratio for 1 hour, complex purified by SEC; then SEC-SAXS on Superdex 200 increase 3.2/200 in PBS, 20°C; details: both partners purified
[6] = biological target: T5, hCD40 (immobilised for SPR) (Homo sapiens, UniProt P25942); test: SPR; Biacore T100; hCD40 immobilised on a CM5 chip by amine coupling; mAbs injected at 250, 50, 10, 2, 0.4 and 0 nM in HBS-EP+, 30 μL/min, 300 s association, 300 s dissociation; 1:1 Binding model; details: both partners purified
T5 construct: CD40, human

CD40 on Ramos cells = biological target: T6, CD40 on Ramos cells (Homo sapiens (Ramos cells), UniProt P25942); test: flow cytometry on cells; Ramos cells incubated with a fixed concentration of CD40L and various concentrations of anti-CD40 mAbs; remaining bound CD40L detected by anti-FLAG-APC; details: one partner purified
T6 construct: CD40 on the surface of Ramos cells; also called CD40-expressing Ramos cells; source: endogenous, on Ramos cells
T6 sequence (P25942 21-277): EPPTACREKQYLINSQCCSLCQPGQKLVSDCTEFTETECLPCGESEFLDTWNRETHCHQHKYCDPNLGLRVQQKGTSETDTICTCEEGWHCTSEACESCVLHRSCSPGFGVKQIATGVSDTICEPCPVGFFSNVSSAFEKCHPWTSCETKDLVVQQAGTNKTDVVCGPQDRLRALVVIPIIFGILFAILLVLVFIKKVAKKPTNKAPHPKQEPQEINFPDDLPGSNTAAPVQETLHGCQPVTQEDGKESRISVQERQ

T4 sequence (P25942 21-193): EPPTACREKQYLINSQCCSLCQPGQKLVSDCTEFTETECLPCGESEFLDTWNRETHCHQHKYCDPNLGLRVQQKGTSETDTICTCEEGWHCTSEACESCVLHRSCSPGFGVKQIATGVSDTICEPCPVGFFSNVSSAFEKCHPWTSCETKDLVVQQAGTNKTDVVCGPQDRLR
T2 sequence (P25942 whole entry, looked up, change not shown, the tested form may be a part): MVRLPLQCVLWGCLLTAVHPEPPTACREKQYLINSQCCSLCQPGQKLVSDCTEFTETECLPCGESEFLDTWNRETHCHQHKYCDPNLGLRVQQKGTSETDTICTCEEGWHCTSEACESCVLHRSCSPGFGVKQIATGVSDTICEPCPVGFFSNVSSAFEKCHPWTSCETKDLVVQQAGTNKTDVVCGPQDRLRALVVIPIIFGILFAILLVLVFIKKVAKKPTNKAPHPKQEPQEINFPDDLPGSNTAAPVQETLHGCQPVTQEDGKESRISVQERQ
T3 sequence (P25942 whole entry, looked up, change not shown, the tested form may be a part): as above
T1 sequence (P25942 whole entry, looked up, the tested form may be a part): as the sequence (P25942 whole entry, looked up, change not shown, the tested form may be a part) above
T5 sequence (P25942 21-277): as the sequence (P25942 21-277) above

B1: 341G2 (anti-CD40 mAb; isotype not stated for these experiments) (antibody, V domains shown)
VH: QVQLQQSGPGLVKPSQTLSLTCAISGDSVSSNSATWNWIRQSPSRDLEWLGRTYYRSKWYRDYVGSVKSRIIINPDTSNNQFSLQLNSVTPEDTAIYYCTRAQWLGGDYPYYYSMDVWGQGTTVTVSS
VL: EIVLTQSPATLSLSPGERATLSCRASQSVSSYLAWYQQKPGQAPRLLIYDASNRATGIPARFSGSGSGTDFTLTISSLEPEDFAVYYCQQRSNTFGPGTKVDIK
notes: 341G2 heavy chain; 341G2 light chain; also called bleselumab; source: produced either from hybridoma cells or by transient expression in CHO cells, purified on protein A columns; copies: 2 + 2
B1: binds [1]; no binding (tested: 10 μg/mL) [2]; no binding (tested: 10 μg/mL) [3]. B1: binds [4].

B2: 341G2 F(ab) (Fab, V domains shown)
VH: B1 VH
VL: B1 VL
notes: may stand in the SASBDB entry of the CD40-341G2 F(ab) complex; may stand in SASBDB SASDHN8; also called F(ab) fragment of 341G2 hIgG1; source: digestion of 341G2 hIgG1 with papain-agarose, protein A depletion of IgG1 and Fc, purified by SEC
B2: binds [5].

B3: 341G2 hIgG4 (parental 341G2) (antibody, V domains shown)
VH: B1 VH
VL: B1 VL
notes: 341G2 heavy chain variable domain; human IgG4 heavy chain constant region (pEE6.4 vector encoding the isotype); may stand in SASBDB SASDHN8; IgG4; also called 341G2 h4; bleselumab; source: produced either from hybridoma cells or by transient expression in CHO cells, purified on protein A columns; copies: 2 + 2
B3: binds [6]; binds (CD40 on Ramos cells).

B4: 341G2 hIgG1 (antibody, V domains shown)
VH: B1 VH
VL: B1 VL
notes: 341G2 heavy chain variable domain; human IgG1 heavy chain constant region (pEE6.4 vector encoding the isotype); may stand in SASBDB SASDHN8; IgG1; also called 341G2 h1; hIgG1 variant of 341G2; source: produced either from hybridoma cells or by transient expression in CHO cells, purified on protein A columns; copies: 2 + 2
B4: binds (CD40 on Ramos cells).
